In patent US20230265179A1 (TWIST BIOSCIENCE, published 2023):

T1: CD40L over-expressed on Expi293 cells (UniProt P29965 1-261, limits assumed)
T1 construct: whole, on cells; also called cytokine over-expressing Expi293 cells
T1 sequence (looked up): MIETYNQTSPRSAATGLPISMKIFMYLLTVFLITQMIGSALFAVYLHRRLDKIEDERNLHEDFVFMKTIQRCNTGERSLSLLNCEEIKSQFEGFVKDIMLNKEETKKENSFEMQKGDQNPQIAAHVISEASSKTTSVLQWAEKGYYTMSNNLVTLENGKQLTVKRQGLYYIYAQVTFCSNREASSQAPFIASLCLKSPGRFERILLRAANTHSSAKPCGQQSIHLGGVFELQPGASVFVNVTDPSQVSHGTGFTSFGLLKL

T2: IL1RL1 (UniProt Q01638 19-328, limits assumed)
T2 construct: SPR analyte
T2 sequence (looked up): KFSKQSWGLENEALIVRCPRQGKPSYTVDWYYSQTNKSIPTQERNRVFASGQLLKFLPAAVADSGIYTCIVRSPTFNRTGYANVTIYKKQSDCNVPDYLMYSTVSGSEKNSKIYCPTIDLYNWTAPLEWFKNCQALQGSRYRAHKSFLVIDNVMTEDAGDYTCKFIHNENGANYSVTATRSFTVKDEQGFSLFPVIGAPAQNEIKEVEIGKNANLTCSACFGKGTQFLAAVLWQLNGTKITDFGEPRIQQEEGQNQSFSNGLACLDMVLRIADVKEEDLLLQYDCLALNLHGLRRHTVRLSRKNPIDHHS

B1: CD40L-140 (VHH)
VHH: EVQLVESGGGLVQPGGSLRLSCAASGNIFSHNAMGWFRQAPGKEREFVASMRGSGSTVYADSVKGRFTISADNSKNTAYLQMNSLKPEDTAVYYCAKSVYGDYIFDYWGQGTLVTVSS
B2: CD40L-128 (VHH)
VHH: EVQLVESGGGLVQPGGSLRLSCAASGLTFGTHVMGWFRQAPGKEREFVASIDWSGRSTYYADSVKGRFTISADNSKNTAYLQMNSLKPEDTAVYYCAADVWGLGYDWGQGTLVTVSS
B3: CD40L-134 (VHH)
VHH: EVQLVESGGGLVQPGGSLRLSCAASGFTFSRYEMGWFRQAPGKEREFVATITEGGARNYADSVKGRFTISADNSKNTAYLQMNSLKPEDTAVYYCAAEIGYYSGGTYFSSEAWGQGTLVTVSS
B4: CD40L-71 (VHH)
VHH: EVQLVESGGGLVQPGGSLRLSCAASGSIDNIHAMGWFRQAPGKERKFVAVIYSSDGSTLYADSVKGRFTISADNSKNTAYLQMNSLKPEDTAVYYCAAEPYGSGSSLMSEYDWGQGTLVTVSS
B5: CD40L-132 (VHH)
VHH: EVQLVESGGGLVQPGGSLRLSCAASGSIDRINAMGWFRQAPGKEREFIAVIYWRDGSSLYADSVKGRFTISADNSKNTAYLQMNSLKPEDTAVYYCAAEPYGSGSSLISEYDWGQGTLVTVSS
B6: CD40L-81 (VHH)
VHH: EVQLVESGGGLVQPGGSLRLSCAASGGIFGINAMGWFRQAPGKEREFIAVIYWRDGSSLYADSVKGRFTISADNSKNTAYLQMNSLKPEDTAVYYCAAEPYGSGSSLISEYDWGQGTLVTVSS
B7: CD40L-117 (VHH)
VHH: EVQLVESGGGLVQPGGSLRLSCAASGFIGNYHAMGWFRQAPGKEREFIAVIYWRDGSSLYADSVKGRFTISADNSKNTAYLQMNSLKPEDTAVYYCAAEPYGSGSSLISEYDWGQGTLVTVSS
B8: CD40L-123 (VHH)
VHH: EVQLVESGGGLVQPGGSLRLSCAASGRTFSIYAMGWFRQAPGKEREFVAVIYSSDGSTLYADSVKGRFTISADNSKNTAYLQMNSLKPEDTAVYYCAAEPYGSGSSLMSEYDWGQGTLVTVSS
B9: CD40L-83 (VHH)
VHH: EVQLVESGGGLVQPGGSLRLSCAASGRTSNIYAMGWFRQAPGKEREFIAVIYWRDGSSLYADSVKGRFTISADNSKNTAYLQMNSLKPEDTAVYYCAAEPYGSGSSLISEYDWGQGTLVTVSS
B10: CD40L-110 (VHH)
VHH: EVQLVESGGGLVQPGGSLRLSCAASGSSGVINAMGWFRQAPGKEREFIAVIYWRDGSSLYADSVKGRFTISADNSKNTAYLQMNSLKPEDTAVYYCAAEPYGSGSSLISEYDWGQGTLVTVSS
B11: CD40L-97 (VHH)
VHH: EVQLVESGGGLVQPGGSLRLSCAASGGTFGHYAMGWFRQAPGKEREFVAVIYSSDGSTLYADSVKGRFTISADNSKNTAYLQMNSLKPEDTAVYYCAAEPYGSGSSLISEYDWGQGTLVTVSS
B12: CD40L-109 (VHH)
VHH: EVQLVESGGGLVQPGGSLRLSCAASGSILSINAMGWFRQAPGKEREFVAVIYSSDGSTLYADSVKGRFTISADNSKNTAYLQMNSLKPEDTAVYYCAAEPYGSGSSLMSEYDWGQGTLVTVSS
B13: CD40L-78 (VHH)
VHH: EVQLVESGGGLVQPGGSLRLSCAASGGTFSVFAMGWFRQAPGKEREFVAVIYSSDGSTLYADSVKGRFTISADNSKNTAYLQMNSLKPEDTAVYYCAAEPYGSGSSLISEYDWGQGTLVTVSS
B14: CD40L-121 (VHH)
VHH: EVQLVESGGGLVQPGGSLRLSCAASGRTFSTYAMGWFRQAPGKEREFVAVIYSSDGSTLYADSVKGRFTISADNSKNTAYLQMNSLKPEDTAVYYCAAEPYGSGSSLISEYDWGQGTLVTVSS
B15: CD40L-64 (VHH)
VHH: EVQLVESGGGLVQPGGSLRLSCAASGFTFSRYEMGWFRQAPGKEREMVAAIDDGGNTEYADSVKGRFTISADNSKNTAYLQMNSLKPEDTAVYYCASDHYDTDTKSDVYNWGQGTLVTVSS
B16: CD40L-127 (VHH)
VHH: EVQLVESGGGLVQPGGSLRLSCAASGFTFSRYEMGWFRQAPGKERELVASITNGGSTYYADSVKGRFTISADNSKNTAYLQMNSLKPEDTAVYYCASDHYDTDTKSDVYNWGQGTLVTVSS
B17: CD40L-147 (VHH)
VHH: EVQLVESGGGLVQPGGSLRLSCAASGFTFSRYEMGWFRQAPGKEREFVATITEGGARNYADSVKGRFTISADNSKNTAYLQMNSLKPEDTAVYYCASDHYDTDTKSDVYNWGQGTLVTVSS
B18: CD40L-88 (VHH)
VHH: EVQLVESGGGLVQPGGSLRLSCAASGFTFDDYDMGWFRQAPGKEREFVAAIDWSGGSTYYADSVKGRFTISADNSKNTAYLQMNSLKPEDTAVYYCASDHYDTDTKSDVYNWGQGTLVTVSS
B19: CD40L-87 (VHH)
VHH: EVQLVESGGGLVQPGGSLRLSCAASGFTFDDYDMGWFRQAPGKEREFVAAISMSGDDAAYADSVKGRFTISADNSKNTAYLQMNSLKPEDTAVYYCASDHYDTDTKSDVYNWGQGTLVTVSS
B20: CD40L-131 (VHH)
VHH: EVQLVESGGGLVQPGGSLRLSCAASGFTYGNYDMGWFRQAPGKEREFVAAIYPSGRNAYYADSVKGRFTISADNSKNTAYLQMNSLKPEDTAVYYCASDHYDTDTKSDVYNWGQGTLVTVSS
B21: CD40L-148 (VHH)
VHH: EVQLVESGGGLVQPGGSLRLSCAASGFTFGNYDMGWFRQAPGKERELVAAISMSGDDAAYADSVKGRFTISADNSKNTAYLQMNSLKPEDTAVYYCASDHYDTDTKSDVYNWGQGTLVTVSS
B22: CD40L-136 (VHH)
VHH: EVQLVESGGGLVQPGGSLRLSCAASGFTFSDYDMGWFRQAPGKEREFVAAISMSGEDAAYADSVKGRFTISADNSKNTAYLQMNSLKPEDTAVYYCASDHYDTDTKSDVYNWGQGTLVTVSS
B23: CD40L-138 (VHH)
VHH: EVQLVESGGGLVQPGGSLRLSCAASGFTFGNYDMGWFRQAPGKEREFVAVIDTNGGLIAYADSVKGRFTISADNSKNTAYLQMNSLKPEDTAVYYCASDHYDTDTKSDVYNWGQGTLVTVSS
B24: CD40L-92 (VHH)
VHH: EVQLVESGGGLVQPGGSLRLSCAASGFTFDDSDMGWFRQAPGKEREFVAAIDASGGFTEYADSVKGRFTISADNSKNTAYLQMNSLKPEDTAVYYCASDHYDTDTKSDVYNWGQGTLVTVSS
B25: CD40L-143 (VHH)
VHH: EVQLVESGGGLVQPGGSLRLSCAASGRTFSSYDMGWFRQAPGKEREFVAAIDASGGFTEYADSVKGRFTISADNSKNTAYLQMNSLKPEDTAVYYCASDHYDTDTKSDVYNWGQGTLVTVSS
B26: CD40L-86 (VHH)
VHH: EVQLVESGGGLVQPGGSLRLSCAASGRTLTNYDMGWFRQAPGKEREFVAVINSGGGSTQYADSVKGRFTISADNSKNTAYLQMNSLKPEDTAVYYCASDHYDTDTKSDVYNWGQGTLVTVSS
B27: CD40L-85 (VHH)
VHH: EVQLVESGGGLVQPGGSLRLSCAASGLNLSRLDMGWFRQAPGKEREFVAAVSGSGDDTYYADSVKGRFTISADNSKNTAYLQMNSLKPEDTAVYYCASDHYDTDTKSDVYNWGQGTLVTVSS
B28: CD40L-137 (VHH)
VHH: EVQLVESGGGLVQPGGSLRLSCAASGFTFSRYEMGWFRQAPGKEREFVAAIDDGGNTEYADSVKGRFTISADNSKNTAYLQMNSLKPEDTAVYYCAAVYVSTWGNGYDWGQGTLVTVSS
B29: IL1RL1-84 (Fc fusion, not shown: a dimerising Fc or GST)
VHH: EVQLVESGGGLVQPGGSLRLSCAASGGIISNYHMGWFRQAPGKEREGVAAIYSDGSTYYADRVKGRFTISADNSKNTAYLQMNSLKPEDTAVYYCAARPVRVDDISLPVGFDWGQGTLVTVSS
notes: VHH-Fc on IgG2 Fc

Molecular target: T1, CD40L over-expressed on Expi293 cells
Test: flow cytometry, 100 nM antibody, CD40L-Expi293 vs parent Expi293 cells;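 further: ratio is the mean fluorescence intensity on CD40L-overexpressing Expi293 cells divided by the mean fluorescence intensity on parental Expi293 cells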
Protocol: All incubations and washes were in buffer containing PBS+1% BSA. MFI Ratio is defined by the mean fluorescence intensity (MFI) of the cytokine over-expressing Expi293 cell over the Expi293 parent cell. […] EC50 was calculated in GraphPad Prism.

Row | Binder | 100 nM FACS (MFI Ratio) [ratio]
1 | B1 | 4.3
2 | B2 | 1.6
3 | B3 | 7.3
4 | B4 | 5.9
5 | B5 | 3.9
6 | B6 | 6
7 | B7 | 3.6
8 | B8 | 6.7
9 | B9 | 15.7
10 | B10 | 4.9
11 | B11 | 8.9
12 | B12 | 4.7
13 | B13 | 8.2
14 | B14 | 6.9
15 | B15 | 19.4
16 | B16 | 11.9
17 | B17 | 7.4
18 | B18 | 26
19 | B19 | 18.3
20 | B20 | 12.1
21 | B21 | 12.5
22 | B22 | 22.4
23 | B23 | 5.1
24 | B24 | 6.6
25 | B25 | 8.3
26 | B26 | 8.9
27 | B27 | 42.6
28 | B28 | 7.7

Molecular target: T2, IL1RL1
Test: SPR (Carterra LSA), antibody amine-coupled, 1:1 model;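 further: HC30M sensor chip at 25 °C in HBS-TE, analyte at rising concentrations in buffer containing 0.5 mg/mL BSA, 5 min association then 15 min dissociation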
Protocol: SPR experiments were performed on a Carterra LSA SPR biosensor equipped with a HC30M chip at 25° C. in HBS-TE. Antibodies were diluted to 10 μg/mL and amine-coupled to the sensor chip by EDC/NHS activation, followed by ethanolamine HCl quenching. Increasing concentrations of analyte were flowed over the sensor chip in HBS-TE with 0.5 mg/mL BSA with 5-minute association and 15-minute dissociation. Following each injection cycle the surface was regenerated with 2× 30-second injections of IgG elution buffer (Thermo). Data were analyzed in Carterra's Kinetics Tool software with 1:1 binding model.

Row | Binder | Kd [nM] | koff [s⁻¹] | kon [M⁻¹ s⁻¹]
29 | B29 | ≤ 0.0673 | ≤ 1e-05 | 149000
